In patent US20230340106A1 (published 2023):
Residue numbers refer to the chain shown, from its start.

B1: d1C7 (antibody, V domains shown)
VH: QVQLVQSGAEVKKPGSSVKVSCKASGGTFSSYAISWVRQAPGQGLEWMGGIIPIFGTANYAQKFQGRVTITADESTSTAYMELSSLRSEDTAVYYCARVDRYYNWNYFLGSFDYWGQGTLVTVSS
VL: SYVLTQPPSVSVAPGKTARITCGGNNIRSKSVHWYQQKPGQAPVVVIYYDSDRPSGIPERISGSNSGNTATLTISRVEAGDEADYFCQVWDSSSDHHVFGGGTKLTVL
notes: Only the variable domains are tied to the clone; also called clone d1C7
B2: recombinant IL-2Rβ (receptor, UniProt P14784 27-239, looked up)
chain: AVNGTSQFTCFYNSRANISCVWSQDGALQDTSCQVHAWPDRRRWNQTCELLPVSQASWACNLILGAPDSQKLTTVDIVTLRVLCREGVRWRVMAIQDFKPFENLRLMAPISLQVVHVETHRCNISWEISQASHYFERHLEFEARTLSPGHTWEEAPLLTLKQKQEWICLETLTPDTQYEFQVRVKPLQGEFTTWSPWSQPLAFRTKPAALGKD
modifications: biotin labeled
notes: also called CD122; IL2Rb
B3: F4.7.8 (antibody, V domains shown)
VH: not shown
VL: AIQLTQSPSSLSASVGDRVTITCQASQDIFNLLNWYRQKPGKAPDLLVYRASNLETGVPSRFSGSGSGTDFTFTISSLQPEDVGTYYCQQSANLPLTFGGGTKVEIK
notes: Only the variable domains are tied to the clone
B4: 16C3 (antibody, V domains shown)
VH: QVQLVQSGGGVVQPGRSLRLSCAASGFTFSNYAMNWVRQAPGKGLEWVTLISYDGSQKYYADSVKGRFTTSRDNSKNTLYLQMNSLRAEDTAVYYCARDSTTLGAFDVWGQGTMVTVSS
VL: SYELTQPPSLSVSPGQTATISCSGDAFPRKFAYWYQQKSGQAPVLVIYEDTRRPSGIPERFSGSSSGTMATLTISGAQVEDEADYFCYSTDTTGTHRVFGGGTKLTVL
B5: recombinant IL-2Rα (receptor, UniProt P01589 22-213, looked up)
chain: ELCDDDPPEIPHATFKAMAYKEGTMLNCECKRGFRRIKSGSLYMLCTGNSSHSSWDNQCQCTSSATRNTTKQVTPQPEEQKERKTTEMQSPMQPVDQASLPGHCREPPPWENEATERIYHFVVGQMVYYQCVQGYRALHRGPAESVCKMTHGKTRWTQPQLICTGEMETSQFPGEEKPQASPEGRPESETSC
modifications: biotin labeled
notes: also called IL-2α; CD25
B6: F5.1.11 (antibody, V domains shown)
VH: QLQLQESGPGLVKPSQTLSLTCTVSGGSISSGGYYWSWIRQHPGKGLEWIGYIYYSGSTYYNPSLKSRVTISVDTSKNQFSLKLSSVTAADTAVYYCARTPTVTGDWFDPWGRGTLVTVSS
VL: NFMLTQPHSVSESPGKTVTISCTRSSGSIASNYVQWYQQRPGSSPTTVIYEDNQRPSGVPDRFSGSIDSSSNSASLTISGLKTEDEADYYCQSYDSSNVVFGGGTKLTVL
B7: F5.1.11.02 (antibody, V domains shown)
VH: B6 VH with Y55K, T59A, N62S
VL: B6 VL with S93T, S97I, N98D, V100Y
notes: also called F5111.2; 5.1.11.2
B8: F5.1.11.04 (antibody, V domains shown)
VH: B6 VH with T59N, Y61W
VL: B6 VL with S96T, S97R, N98D
B9: F5.1.9.5 (antibody, V domains shown)
VH: EVQLVESGPGLVKPSETLSLTCAVSGYSISSGYYWGWIRQPPGKGLEWIGLSYHTRSTYYDPSLKSRVTISVDTSKNQFSLKLSSVTAADTAVYYCAREAYSDRAFDIWGQGTMVTVSS
VL: B6 VL with V18I, N32D, T46S, E51A, G58E, K82M, S97N, N98I, V100I
B10: F4.7.6 (antibody, V domains shown)
VH: B6 VH with Q1E, L2V, R113Q
VL: B6 VL with N98T
B11: F5.1.11.08 (antibody, V domains shown)
VH: B6 VH with Y55K, T59N, Y61W
VL: B6 VL with S93T, S97I, N98D, V100Y
B12: F4.7.062 (antibody, V domains shown)
VH: B6 VH with L2V, R113Q
VL: B6 VL

Columns and labels:
[1] = molecular target: T1, human IL-2 (recombinant IL-2, Humanzyme) (human, UniProt P60568 21-153); test: SPR as in Example 1 (value as in Table 3)
T1 construct: It may include the signal peptide; also called hIL-2; interleukin-2
Experimental: (§1) Experiments were performed at 25° C. using a 30 μL/minute flow rate in 0.01 M HEPES pH 7.4, 0.15 M NaCl and 0.005% v/v surfactant P20 (HBS-P) buffer. After each cycle, the chip surface was regenerated with 3 M MgCl₂ and new antibody captured. […] Data were analyzed using the Biacore T200 Evaluation software, the signal from the adjacent control flow cell with only the capture antibody immobilized was background subtracted along with buffer only injections for each antibody. A 1:1 Langmuir binding model was used to fit all binding curves.

[2] = molecular target: T2, recombinant cynomolgus monkey (Macaca fascicularis) IL-2 (cynomolgus monkey (Macaca fascicularis), UniProt Q29615 21-154); test: SPR, IgG captured, cyno IL-2 1-100 nM; 1:1 Langmuir fit or steady-state affinity
T2 construct: also called cyno IL-2; cynomolgus monkey IL-2
Experimental: as §1
(§2) A 1:1 Langmuir binding model was used to fit binding curves or the steady-state affinity constant calculated from a concentration-response curve.

[3] = molecular target: T1, human IL-2 (recombinant IL-2, Humanzyme); test: SPR (Biacore T200), IgG captured by anti-human IgG, IL-2 injected, 25 C, 1:1 Langmuir fit
Experimental: as §1

d1C7/IL-2 complex = molecular target: T3, d1C7/IL-2 complex (human, UniProt P60568 21-153); test: SPR (Biacore T200), complex injected over biotinylated receptor on a streptavidin chip
T3 construct: also called clone d1C7/IL-2 complex
Experimental: (§3) Experiments were performed at 25° C. using a 10 μL/minute flow rate in 10 mM HEPES (pH 7.4), 150 mM NaCl and 0.005% v/v Surfactant P20 buffer. […] Data was background subtracted using the adjacent control flow cell and buffer only injections.

IL-2/F5.1.11 Fab complex = IL-2/F5.1.11 Fab complex (human, UniProt P60568 21-153); test: SPR (Biacore T200), equilibrium analysis, 1-500 nM IL-2 pre-complexed with excess Fab over biotinylated IL-2Rα
Experimental: as §3, with “(pH7.4),” for “(pH 7.4),”, “injections. The affinity of the interaction was calculated from concentration-response relationship at equilibrium.” for “injections.”

[4] = molecular target: T1, human IL-2 (recombinant IL-2, Humanzyme); test: SPR as in Example 1 (IgG captured, IL-2 injected)
Experimental: as §1

[5] = molecular target: T2, recombinant cynomolgus monkey (Macaca …); test: SPR, IgG captured, cyno IL-2 1-100 nM; concentration-response insufficient to calculate the affinity
Experimental: as §1, §2

[6] = molecular target: T1, human IL-2 (recombinant IL-2, Humanzyme); test: SPR as in Example 1 (value as in Table 4)
Experimental: as §1

[7] = molecular target: T1, human IL-2 (recombinant IL-2, Humanzyme); test: SPR as in Example 1; reference is parental F5.1.11
Experimental: as §1

[8] = molecular target: T1, human IL-2 (recombinant IL-2, Humanzyme); test: method not stated in the sentence (presumably SPR as in Example 1)

T2 sequence (Q29615 21-154 limits assumed): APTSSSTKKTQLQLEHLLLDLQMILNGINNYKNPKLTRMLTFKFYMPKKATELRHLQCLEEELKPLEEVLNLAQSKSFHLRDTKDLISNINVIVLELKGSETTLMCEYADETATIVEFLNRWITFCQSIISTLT
T1 sequence (P60568 21-153 limits assumed): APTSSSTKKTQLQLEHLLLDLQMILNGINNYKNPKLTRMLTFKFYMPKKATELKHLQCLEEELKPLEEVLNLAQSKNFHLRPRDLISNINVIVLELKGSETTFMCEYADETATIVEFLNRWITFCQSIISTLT
IL-2/F5.1.11 Fab complex, sequence (P60568 21-153 limits assumed, one chain of several): as the sequence (P60568 21-153 limits assumed) above
T3 sequence (P60568 21-153 limits assumed, one chain of several): as the sequence (P60568 21-153 limits assumed) above

| Binder | Kd [1] [nM] | Kd [2] [nM] | Kd [3] [nM] | koff [3] [s⁻¹] | kon [3] [M⁻¹ s⁻¹] | Kd [4] [nM] | koff [4] [s⁻¹] | kon [4] [M⁻¹ s⁻¹] | further results |
| --- | --- | --- | --- | --- | --- | --- | --- | --- | --- |
| B1 | 0.536 | ≥ 108 | 0.536 | 0.000607 | 1.13e+06 | – | – | – | – |
| B2 | – | – | – | – | – | – | – | – | binding result (d1C7/IL-2 complex): no binding |
| B3 | 13.4 | 92.4 | 13.4 | 0.0031 | 231000 | – | – | – | – |
| B4 | 0.637 | 0.516 | 0.637 | 0.000619 | 989000 | – | – | – | – |
| B5 | – | – | – | – | – | – | – | – | Kd (IL-2/F5.1.11 Fab complex): 70.1 nM |
| B6 | 3.12 | – | 3.12 | 0.00688 | 2.21e+06 | 1.88 | 0.00711 | 3.78e+06 | binding result [5]: binds |
| B7 | – | ~211 | – | – | – | 0.114 | 0.000574 | 5.05e+06 | Kd [6]: 0.114 nM; fold increase of apparent binding affinity over parental F5.1.11 [7]: 16 fold |
| B8 | – | – | – | – | – | 0.624 | 0.000458 | 734000 | – |
| B9 | – | – | – | – | – | – | – | – | Kd [8]: 0.663 nM; koff [8]: 0.000818 s⁻¹; kon [8]: 1.23e+06 M⁻¹ s⁻¹ |
| B10 | – | – | 3.03 | 0.00738 | 2.44e+06 | – | – | – | – |
| B11 | – | – | – | – | – | 0.205 | 0.000453 | 2.21e+06 | – |
| B12 | – | – | 1.54 | 0.0058 | 3.77e+06 | – | – | – | – |
